Results taken from patent US20200018762.

How the values were obtained:
[1] = target: purified H4 protein (Example 3), P62805
[2] = target: purified histone H3 (Example 2), P68431
[3] = target: T1, biotinylated H4-derived unphosphorylated peptide TVTAMDVVYALKRQGRT
T1 chain: TVTAMDVVYALKRQGRT

Protein | in vitro kinase assay, immunoblot with pTyr51-H4 antibody [1] | in vitro kinase reaction, immunoblot with pTyr99-H3 antibody [2] | in vitro kinase assay on immobilized peptide, ELISA with pY88-H4 antibodies [3]
purified constitutively active E346K-Ack1 (HA-tagged) (protein) MQPEEGTGWLLELLSEVQLQQYFLRLRDDLNVTRLSHFEYVKNEDLEKIGMGRPGQRRLWEAVKRRKALCKRKSWMSKVFSGKRLEAEFPPHHSQSTFRKTSPAPGGPAGEGPLQSLTCLIGEKDLRLLEKLGDGSFGVVRRGEWDAPSGKTVSVAVKCLKPDVLSQPEAMDDFIREVNAMHSLDHRNLIRLYGVVLTPPMKMVTELAPLGSLLDRLRKHQGHFLLGTLSRYAVQVAEGMGYLESKRFIHRDLAARNLLLATRDLVKIGDFGLMRALPQNDDHYVMQEHRKVPFAWCAPESLKTRTFSHASDTWMFGVTLWEMFTYGQEPWIGLNGSQILHKIDKKGERLPRPEDCPQDIYNVMVQCWAHKPEDRPTFVALRDFLLEAQPTDMRALQDFEEPDKLHIQMNDVITVIEGRAENYWWRGQNTRTLCVGPFPRNVVTSVAGLSAQDISQPLQNSFIHTGHGDSDPRHCWGFPDRIDELYLGNPMDPPDLLSVELSTSRPPQHLGGVKKPTYDPVSEDQDPLSSDFKRLGLRKPGLPRGLWLAKPSARVPGTKASRGSGAEVTLIDFGEEPVVPALRPCAPSLAQLAMDACSLLDETPPQSPTRALPRPLHPTPVVDWDARPLPPPPAYDDVAQDEDDFEICSINSTLVGAGVPAGPSQGQTNYAFVPEQARPPPPLEDNLFLPPQGGGKPPSSAQTAEIFQALQQECMRQLQAPAGSPAPSPSPGGDDKPQVPPRVPIPPRPTRPHVQLSPAPPGEEETSQWPGPASPPRVPPREPLSPQGSRTPSPLVPPGSSPLPPRLSSSPGKTMPTTQSFASDPKYATPQVIQAPGPRAGPCILPIVRDGKKVSSTHYYLLPERPSYLERYQRFLREAQSPEEPTPLPVPLLLPPPSTPAPAAPTATVRPMPQAALDPKANFSTNNSNPGARPPPPRATARLPQRGCPGDGPEAGRPADKIQMAMVHGVTTEECQAALQCHGWSVQRAAQYLKVEQLFGLGLRPRGECHKVLEMFDWNLEQAGCHLLGSWGPAHHKR | When purified E346K-Ack1 and H4 were incubated, H4 was Tyr51-phosphorylated, however, Ack1 inhibitor AIM-100 abrogated H4 pTyr51-phosphorylation (FIG. 26B) | – | –
purified Ack1 (Examples 2 and 5) (protein) MQPEEGTGWLLELLSEVQLQQYFLRLRDDLNVTRLSHFEYVKNEDLEKIGMGRPGQRRLWEAVKRRKALCKRKSWMSKVFSGKRLEAEFPPHHSQSTFRKTSPAPGGPAGEGPLQSLTCLIGEKDLRLLEKLGDGSFGVVRRGEWDAPSGKTVSVAVKCLKPDVLSQPEAMDDFIREVNAMHSLDHRNLIRLYGVVLTPPMKMVTELAPLGSLLDRLRKHQGHFLLGTLSRYAVQVAEGMGYLESKRFIHRDLAARNLLLATRDLVKIGDFGLMRALPQNDDHYVMQEHRKVPFAWCAPESLKTRTFSHASDTWMFGVTLWEMFTYGQEPWIGLNGSQILHKIDKEGERLPRPEDCPQDIYNVMVQCWAHKPEDRPTFVALRDFLLEAQPTDMRALQDFEEPDKLHIQMNDVITVIEGRAENYWWRGQNTRTLCVGPFPRNVVTSVAGLSAQDISQPLQNSFIHTGHGDSDPRHCWGFPDRIDELYLGNPMDPPDLLSVELSTSRPPQHLGGVKKPTYDPVSEDQDPLSSDFKRLGLRKPGLPRGLWLAKPSARVPGTKASRGSGAEVTLIDFGEEPVVPALRPCAPSLAQLAMDACSLLDETPPQSPTRALPRPLHPTPVVDWDARPLPPPPAYDDVAQDEDDFEICSINSTLVGAGVPAGPSQGQTNYAFVPEQARPPPPLEDNLFLPPQGGGKPPSSAQTAEIFQALQQECMRQLQAPAGSPAPSPSPGGDDKPQVPPRVPIPPRPTRPHVQLSPAPPGEEETSQWPGPASPPRVPPREPLSPQGSRTPSPLVPPGSSPLPPRLSSSPGKTMPTTQSFASDPKYATPQVIQAPGPRAGPCILPIVRDGKKVSSTHYYLLPERPSYLERYQRFLREAQSPEEPTPLPVPLLLPPPSTPAPAAPTATVRPMPQAALDPKANFSTNNSNPGARPPPPRATARLPQRGCPGDGPEAGRPADKIQMAMVHGVTTEECQAALQCHGWSVQRAAQYLKVEQLFGLGLRPRGECHKVLEMFDWNLEQAGCHLLGSWGPAHHKR | – | Ack1 directly phosphorylates histone H3 at Tyr99 (FIG. 23) | Incubation of H4 peptide with WEE1 and Ack1 protein resulted in robust H4 Tyr88-phosphorylation
